The results in this text go back to publication doi:10.1101/2020.10.08.20209114 (medRxiv, 2020).

The experiment deals with SARS-CoV-2 S2 protein (SARS-CoV-2 (Wuhan-Hu-1 assumed), UniProt P0DTC2). Put plainly: ELISA.

B1: monoclonal antibody 4L12 (antibody, V domains shown)
VH: EVQLVESGGGLVQPGGSLRLSCAASGITVSSNYMNWVRQAPGRGLEWVSLLYSGGSTYYADSVKGRFTISRDNSKNTLYLQMNSLRAEDTAVYYCARDLITYGMDVWGQGTTVTVSS
VL: AIQLTQSPSSLSASVGDRVTITCRASQGISSYLAWYQQKPGKAPKLLIYAASTLQSGVPSRFSGSGSGTDFTLTISSLQPEDFATYYCQQLNSYPPLTFGGGTKVEIK
Regarding B1, the binding result is “no binding”.

B2: monoclonal antibody 7F3 (antibody, V domains shown)
VH: EVQLVESGGGLVKPGRSLRLSCTASGFTFGDYAMSWFRQAPGKGLEWVGFIRSKAYGGTTEYAASVKGRFTISRDDSKSIAYLQMNSLKTEDTAVYYCTRDRYARYDILTGLSPAGADYFYYAMDVWGQGTTVTVSS
VL: EIVLTQSPATLSLSPGERATLSCRASQSVSSYLAWYQQKPGQAPRLLIYDASNRATGIPARFSGSGSGTDFTLTISSLEPEDFAVYYCQQRSNWPQYTFGQGTKLEIK
For the molecule B2, the binding result is recorded as “no binding”.
